From the nanobody polyreactivity screen of Harvey et al. (2022)

Assay: yeast display, Sf9 membrane polyspecificity reagent, FACS + sequencing; frameworks hold sequencing errors
Method in brief: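 A synthetic nanobody library was expressed on Saccharomyces cerevisiae BJ5465 by galactose induction for 36–48 hours. The library was stained for 1 hour at 4 °C with 10% biotinylated, detergent-solubilized Sf9 membrane reagent and enriched with streptavidin microbeads before FACS. Low and high (top ~1%) gates were set on anti-HA fluorescence for expression and streptavidin fluorescence for reagent binding, and each polyreactivity label reflects the gate of origin.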

Sequence | polyreactivity (PSR sort gate)
QVHLVESGGGLVQAGGSLRLSCAASGFTFYRTAMGWYRQPPGKERELVAAITRGASTYYADSVKGRFTISRDNAKNNVYLQMNSLKPEDTAVYYCAADRYYYRGRYYGYTREFDYWGQGTQVTVSS | high polyreactivity
QVHLVESGGGLVQAGGSLRLSCAASGFTFYSYAMGWYRQAPGKERELVANITIGGSTYADSVKGRFTISRDNAKNTVYLQMNSLKPEDTAVYYCARGYRVVGDPLYGDYDYWGQGTQVTVSS | low polyreactivity
QVHLVESGGGLVQAGGSLRLSCAASGFTSQYYAMGWYRQAPGKERELVAAITLRDGSTYYADSVKGRFTISRDNAKNTVYLQMNSLKPEDTAVYYCNTDATSDPYGFGYWGQGTQVTVSS | low polyreactivity
QVHLVESGGGLVQAGGSLRLSCAASGGLFTSYDMGWYRQEPGKEREFVAGISDSGGSTYYADSVKGRFTISRDNAKNTVYLQMNSLKPEVTAVYYCAVESYRRYYYWGQGTQVTVSS | high polyreactivity
QVHLVESGGGLVQAGGSLRLSCAASGIFSRYAMRWYRQAPGKERELVDAISSGDSTNYADSVKGRFTISRDNAKNTVYLQMNSLKPEDTAVYYCATERSHLASGQGYYYVQTFYYWGQGTKVTVSS | low polyreactivity
QVHLVESGGGLVQAGGSLRLSCAASGIIFPSYVMGWYRQAPGKEWELVARISARGGRTYYADSVKGRFTISRDNAKNTVYLQMNSLKPEDTAVYYCAARWGITTWYDYWGQGTQVTVSS | high polyreactivity
QVHLVESGGGLVQAGGSLRLSCAASGIIFSDYALGWYRQAPGKERELVAAITSSGCSTYYADSVKGRFTISRDNAKNTVYLQMNSLKPEDTAVYYCNARYRRKSWRPFDYWGQGTQVTVSS | high polyreactivity
QVHLVESGGGLVQAGGSLRLSCAASGIIFYANVMGWYRQAPGKERELVAGISRNGGRTYYADSVKGRFTFSRDNAKNTVYLQMICLKPEDTAVYYCAARGSYTSIFDYWGQGTQVTVSS | high polyreactivity
QVHLVESGGGLVQAGGSLRLSCAASGITFHGYAMGWYRQAPGKERELVAAISDSGSSTYYADSVKGRFTISRDNAKNTVYLQMNSLKPEDTAVYYCAAVSGFYDQYDYWGQGTQVTVSS | low polyreactivity
QVHLVESGGGLVQAGGSLRLSCAASGITFRSYAMGWYRQAPGKERELVAAISTSGGRTYYADSVKGRFTISRDNAKNTVYLQMNSLKPEDTAVYYCNKVGGVYGYYAYGLGYWGQGTQVTVSS | high polyreactivity
QVHLVESGGGLVQAGGSLRLSCAASGITFYIYAMGWYRQAPGTERELVAAISWRTGRTYYADSVKGRFTISRDNAKNTVYLQMNSLKPEYTAVYYCAAGVWVAGAFDYWGQGTQVNVSS | high polyreactivity
QVHLVESGGGLVQAGGSLRLSCAASGLIFARNAMGWYSQAPGKEREMVAAISRSGSTNYADSVKGRFTISRDNAKNTVYLQMNSLKPEDTAVYYCAADHARYLGFPRVDYWGQGTQVTVSS | low polyreactivity
QVHLVESGGGLVQAGGSLRLSCAASGLTFAWYAMGWYSQAPGKERELVAVISNGGSTNDADSVKGRFTISRDNAKNTVYLQMNSLKPEDTAVYYCAAGWVWSGNDYYYWGQGTQVTVSS | low polyreactivity
QVHLVESGGGLVQAGGSLRLSCAASGLTFGVFAMGWYRQAPGKERELVAAITWRGDTTYYADSVKGRFTISRDNAKNTVYLQMNSLKPEDTAVYYCNAVFFYHGTKPAFISHDYWGQGTQVTVSS | low polyreactivity
QVHLVESGGGLVQAGGSLRLSCAASGLTFIPNAMGWYRQAPGKERELVAAISGTGGSTYYADSVKGRFTISRDNAKNTVYLQMNRLKPEDTAVYYCAARRRYKSGYWGQGTQVTVSS | high polyreactivity
QVHLVESGGGLVQAGGSLRLSCAASGLTFQYYAMGWYRQAPGKQRELVAAISSRGGRTYYADSVKGRFTISRDNAKNTVYLQMNSLKPEDTAVYYCAAEWWAPDRVTRGRIYGYWGQGTQVTVSS | high polyreactivity
QVHLVESGGGLVQAGGSLRLSCAASGNIFTINAMGWYRQAPGKERDLVARITWGGGNTFYADSVKGRFTISRDNAKNTVYLEMNSLKPEDTAVYYCNAVGPYDYRYGKYDYWGQGTQVTVSS | low polyreactivity
QVHLVESGGGLVQAGGSLRLSCAASGNIIPGNAMGWYRQAPGKERELVAAISYSGVRTHYADSVKGRFTISRDNAKNTVYLQMNSLKPEDTAVYYCAASGEQDYDYWGQGTQVTVSS | low polyreactivity
QVHLVESGGGLVQAGGSLRLSCAASGNTFYWYVMGWYRQAPGKERDLVARITSSGGSTNYADSVKGRFTISRDNAKNTVYLQMISLKPEDTAVYYCAADDIYLYGGGTDYYYWGQGTQVTVSS | low polyreactivity
QVHLVESGGGLVQAGGSLRLSCAASGNTHVKNAMGWYRQAPGKERELVAAISSSGGRTYYGDSVKGRFTISRDNAKNTVYLQMNSLKPDDTAVYYCAARYPSGYYYWGQGTQVTVSS | high polyreactivity
QVHLVESGGGLVQAGGSLRLSCAASGRIFDYYAMGWYRQAPGKERELVARITSGGTTNYADSVKGRFTISRDNENNTVYLQMNSLKPEYTEVYYCKAHDYSDPLQMDYWGQGTQVTVSS | low polyreactivity
QVHLVESGGGLVQAGGSLRLSCAASGRIFGRNAMGWYRQAPGQERELVAAITSGSSTYYADSVKGRFTISRDNAKNTVYLQMNSLKPEDTAVYYCAARTIGYHYTGGYGYWGQGTQVTVSS | high polyreactivity

Sequence | polyreactivity (PSR sort gate)
QVHLVESGGGLVQAGGSLRLSCAASGRIFGTYVMGWYRQAPGKERELVARITGGGSTNYADSVKGRFTISRDNAKNTVYLQMNSLKPEDTAVYYCARDYGPYLSPENPAPMDYWGQGTQVTVSS | low polyreactivity
QVHLVESGGGLVQAGGSLRLSCAASGRIFGYYAMGWYRQAPGKERELVAAISYSTGGTSTYADSVKGRFTISRDNAKNTVYLQMNSLKPEDTAVYYCAVRRQYRRAYSFSQSRYDYWGQGTQVTVSS | high polyreactivity
QVHLVESGGGLVQAGGSLRLSCAASGRIFNSYAMGWYRPAPGKERELVAAINWTDVSTYYADSVKGRFTLSRYNAKNTVYVELNSLTPDDTAVYYGPDVRWGSYTLSDDYWGQGTQVTVSS | low polyreactivity
QVHLVESGGGLVQAGGSLRLSCAASGRIFNSYAMGWYRQAPGKERELVAAISRNGGITYYADSVKGRFTISRDNAKNTVYLQMNSLKPEDTAVYYCNADCSRRRYSSDYWGQGTQVTVSS | high polyreactivity
QVHLVESGGGLVQAGGSLRLSCAASGRIFRGYAMGWYRQAPGKERELVATISWNGGSTYYADSVKGRFTISRDNAKNTVYLQMNSLKPEDTAVYYCNKRYWGGRYGYDYWGQGTQVTVSS | high polyreactivity
QVHLVESGGGLVQAGGSLRLSCAASGRIFSYYALGWSRQAPGKERELVAAISWSGSRTYYADSVKGRFTFSRDNAKNTVYFQMNSLKPEDTAVYYCDAEVWSTQGSATVQYDYCGQGTQVTVSS | high polyreactivity
QVHLVESGGGLVQAGGSLRLSCAASGRIFTFYAMGWYRQAPGKERELVAAISSSGVRTYYADSVKGRFTISRDNAKNTVYLQMNSLKPEDTAVYYCAAASRANSYRYNYWGQGTQVTVSS | high polyreactivity
QVHLVESGGGLVQAGGSLRLSCAASGRIFVFNAMGWYRQAPGKDRELVAAISRSAFSTYYADSVKGRFTISRDNAKNTVYLHMISLIPEDTAVYYCTDERTYWFFWEMDSWGQGTQVTVSS | low polyreactivity
QVHLVESGGGLVQAGGSLRLSCAASGRIFYKNAMGWYRQAPGKERELVASITVGGGRTSYADSVKGRFTISRDNAKNTVYLQMNSLKPEDTAVFYCAATTGKTTFRATWYDYWGQCTQVTVSS | low polyreactivity
QVHLVESGGGLVQAGGSLRLSCAASGRIFYRNAMGWYRHAPGKERELVAAISRRGGSTSYADSVQGRFTISRDNAKNTVYLQMTSLKPEDTAVYYCAASRFRTGQEDDYWGQGTQVTVSS | high polyreactivity
QVHLVESGGGLVQAGGSLRLSCAASGRIFYSNVMGWYSQAPGKERELLAAISWSGGRTYYADSVKGRFTISRDNAKNTVYLQMNSLKPEDTAVYYCAAPGGVKYDYWGQGTQVTVSS | high polyreactivity
QVHLVESGGGLVQAGGSLRLSCAASGRIFYYYAMGWYRQAPGKERELVAGITITDASTYYADSVKGRFTISRDYAKNTVYLQMNSLKPEYTAVYYCNAVRYWEGRRYYYWGQGTQVTVSS | high polyreactivity
QVHLVESGGGLVQAGGSLRLSCAASGRILGKYSMGWYRQAPGKERELVAAIRLRGGSTYYADSVKGRFTISRDNAKNTVYLQMNSLKPEDTAVYYCAARYWDRSQAYNYWGQGTQVTVSS | high polyreactivity
QVHLVESGGGLVQAGGSLRLSCAASGRILVQNDMGWYRQAPGKERELVAAIRSDGSTSYADSVKGRFTISRDNAKNTVYLQMNSLKPEDTAVYYCAARIDWTGGEYDYWGQGTQVTVSS | low polyreactivity
QVHLVESGGGLVQAGGSLRLSCAASGRIYYRYAMGWYRTAPGKERELVAAISASGRTYYADSVKGRFTISRDNAKNTVYLQMNSLKTEDTAVYYCAKVAAGSLGSWGQGTQVTLSS | high polyreactivity
QVHLVESGGGLVQAGGSLRLSCAASGRLFFYALGWYRQSPRKERELVAAISWSGGSTYYADSVKGRFTISRDNAKNTVYLQMNSLKPEDTAVYYCAADYEGWGYDYRGDYWGQGTQVTVSS | low polyreactivity
QVHLVESGGGLVQAGGSLRLSCAASGRTFDRNAMGWYRQAPGKERELVAAISRNGGSTYYADSVKGRFTISRDNAKNTVYLQMNSLKPEDTAVYYCAAPRSVYDVARGDYWGQGTQVTVSS | high polyreactivity
QVHLVESGGGLVQAGGSLRLSCAASGRTFDVYAMGWYRQATGKERQLVATISYRSARTYYADSVKGRFTISRDNAKNTVYLQMNSLKPEDTAVYYCAAYFETWHGFGYWGQGTQVTVSS | high polyreactivity
QVHLVESGGGLVQAGGSLRLSCAASGRTFPSNVMGWYRQAPGKERELVAGITWRGASTYYADSVKGRFTISRDNAKNTVYLQMNSLKPEDTAVYYCAVRTQYRRYEYWGQGTKVTVSS | high polyreactivity
QVHLVESGGGLVQAGGSLRLSCAASGRTFRDYTMGWYRQAPGKEREFVAAISSTGSTNYADSVKGRFTISRDNAKNTVYLQMNSLKPEDTAVYYCAADGRRWLGWYGYYYWGQGTQVTVSS | low polyreactivity
QVHLVESGGGLVQAGGSLRLSCAASGRTFRYYAMGWYRQAPGKERELVAAITGSGGRTYYADSVKGRFTISRDNAKNTVYLQMNTLKPEDTAVYYCNRDPDIYICYDYWGQGTQVTVSS | high polyreactivity
